From US20040241820A1

Molecular target: Savinase® (subtilisin 309) (UniProt P29600)
Assay: cell-based or functional assay

Chain of UniProt P29600 (P29600 whole entry): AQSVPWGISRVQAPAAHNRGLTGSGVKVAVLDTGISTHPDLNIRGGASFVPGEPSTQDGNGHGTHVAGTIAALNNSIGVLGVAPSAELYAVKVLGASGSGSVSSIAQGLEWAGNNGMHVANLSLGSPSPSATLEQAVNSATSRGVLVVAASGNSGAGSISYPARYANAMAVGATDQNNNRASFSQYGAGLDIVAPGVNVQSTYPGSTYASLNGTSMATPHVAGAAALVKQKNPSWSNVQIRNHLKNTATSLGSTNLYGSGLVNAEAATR

RA (%) (Residual Activity in the Ovo-inhibition Assay; hydrolysis of Suc-Ala-Ala-Pro-Phe-pNA with versus without inhibitor): < 5%
Substance: trypsin inhibitor type IV-0 (Ovo-inhibitor), Sigma T-1886 (from UniProt P10184 69-517)
